Fewer inactive variants are shown than the library holds.
Experiments:
biotinyl-Phe-oxazolone = assay: self-aminoacylation, catalytic enhancement (BFO) (fold over background); higher = more active; k-Seq, kA / k0A0; sequences stand for … in GGGAAUGGAUCCACAUCUACGAAUUC…UUCACUGCAGACUUGACGAAGCUG
Procedure, shortened: (§1)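 The uncatalyzed rate is the low-activity peak of a bimodal Gaussian fit, and catalytic enhancement is median kA divided by it. The kA values came from pseudo-first-order fits, with 1000 bootstraps, of per-sequence fraction reacted measured by streptavidin capture, triplicate qPCR and Illumina sequencing. Mutagenized RNA pools with a 21-nt variable region (0.43 μM) were reacted with each biotinyl-aminoacyl-oxazolone at 2–1250 μM in 50 μL HEPES/NaCl/KCl/MgCl2/CaCl2 buffer with 5% acetonitrile, pH 6.9–7.0, for 90 minutes at room temperature.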

biotinyl-Ile-oxazolone = assay: self-aminoacylation, catalytic enhancement (BIO) (fold over background); higher = more active; k-Seq, kA / k0A0; sequences stand for … in GGGAAUGGAUCCACAUCUACGAAUUC…UUCACUGCAGACUUGACGAAGCUG
Procedure, shortened: as §1

biotinyl-Met-oxazolone = assay: self-aminoacylation, catalytic enhancement (BMO) (fold over background); higher = more active; k-Seq, kA / k0A0; sequences stand for … in GGGAAUGGAUCCACAUCUACGAAUUC…UUCACUGCAGACUUGACGAAGCUG
Procedure, shortened: as §1

biotinyl-Val-oxazolone = assay: self-aminoacylation, catalytic enhancement (BVO) (fold over background); higher = more active; k-Seq, kA / k0A0; sequences stand for … in GGGAAUGGAUCCACAUCUACGAAUUC…UUCACUGCAGACUUGACGAAGCUG
Procedure, shortened: as §1

biotinyl-Leu-oxazolone = assay: self-aminoacylation, catalytic enhancement (BLO) (fold over background); higher = more active; k-Seq, kA / k0A0; sequences stand for … in GGGAAUGGAUCCACAUCUACGAAUUC…UUCACUGCAGACUUGACGAAGCUG
Procedure, shortened: as §1

biotinyl-Trp-oxazolone = assay: self-aminoacylation, catalytic enhancement (BWO) (fold over background); higher = more active; k-Seq, kA / k0A0; sequences stand for … in GGGAAUGGAUCCACAUCUACGAAUUC…UUCACUGCAGACUUGACGAAGCUG
Procedure, shortened: as §1

Sequence | self-aminoacylation (biotinyl-Phe-oxazolone) | self-aminoacylation (biotinyl-Ile-oxazolone) | self-aminoacylation (biotinyl-Met-oxazolone) | self-aminoacylation (biotinyl-Val-oxazolone) | self-aminoacylation (biotinyl-Leu-oxazolone) | self-aminoacylation (biotinyl-Trp-oxazolone)
AAGUUUGCUAAUAAUCGCAAG [Fam3.1 aminoacylation ribozyme variant] | 1.6 | 0.735 | 0.637 | 0.746 | 0.602 | 0.876
CGACACUUCAAGGAAUCGGUC [Fam1B.1 aminoacylation ribozyme variant] | 3.19 | 2.39 | 1.42 | 1.73 | 1.89 | 1.84
AUUCACCUAGGUCAUAGGUUG [Fam2.2 aminoacylation ribozyme variant] | 0.595 | 0.63 | 0.846 | 0.77 | 0.9 | 0.441
AAGUUUGCUAAUAGUCACAAC [Fam3.1 aminoacylation ribozyme variant] | 1.47 | 0.673 | 0.6 | 0.621 | 0.637 | 0.593
AUUCAACUAGGUCAUCGAGUG [Fam2.2 aminoacylation ribozyme variant] | 2.85 | 1.55 | 2.2 | 1.45 | 3.13 | 1.84
AUUAGCCUGGUCAUCGAGGGA [Fam2.1 aminoacylation ribozyme variant] | 2.28 | 2.08 | 1.49 | 2.4 | 2.52 | 3.19
GUUACCCUGGUCAUCUAGUGA [Fam2.1 aminoacylation ribozyme variant] | 78.6 | 5.9 | 12 | 6.05 | 11.7 | 13.4
AUUACCCUGGAAAUCGAGUGA [Fam2.1 aminoacylation ribozyme variant] | 149 | 8.3 | 19.4 | 8.39 | 20.8 | 22.6
AUUUCCUUGGUCAUCGAGUGA [Fam2.1 aminoacylation ribozyme variant] | 43.8 | 4.35 | 8.2 | 4.63 | 8.92 | 11.1
AAGUUUGGUAAUAGGCGCAAG [Fam3.1 aminoacylation ribozyme variant] | 0.618 | 0.692 | 0.705 | 0.775 | 0.761 | 0.712
AAUCACCUAGGUCUUCGGGUG [Fam2.2 aminoacylation ribozyme variant] | 46.9 | 3.79 | 4.54 | 3.98 | 5.09 | 6.75
AGUACCCUGGUCAGCGAGUGA [Fam2.1 aminoacylation ribozyme variant] | 36.4 | 3.51 | 4.42 | 3.45 | 6.63 | 7.2
UCACACUUCAAGCAAUCAGUC [Fam1B.1 aminoacylation ribozyme variant] | 17.9 | 0.777 | 0.645 | 0.932 | 0.817 | 5.72
AAGGUUGCUAAUGGUCGCAAG [Fam3.1 aminoacylation ribozyme variant] | 1.68 | 1.06 | 0.949 | 1 | 0.828 | 0.994
AUUCACCUAGGCCACCGGGUG [Fam2.2 aminoacylation ribozyme variant] | 13.6 | 3.83 | 5.04 | 3.27 | 6.51 | 4.16
AUUACCCUGGUCGUCGAGUAA [Fam2.1 aminoacylation ribozyme variant] | 1.08 | 1.27 | 1.3 | 1.12 | 1.68 | 0.721
AAGUCUGCUCAUAGUCGCAAG [Fam3.1 aminoacylation ribozyme variant] | 8.38 | 1.16 | 1.29 | 1.18 | 1.08 | 4.23
AUUCAUCUAGGUCAUCGGGUA [Fam2.2 aminoacylation ribozyme variant] | 4.63 | 3.09 | 4.18 | 3.46 | 5.18 | 5.53
CUACUUCAAACAAGCGGUCUA [Fam1A.1 aminoacylation ribozyme variant] | 0.85 | 0.936 | 0.838 | 0.707 | 0.73 | 0.669
AUUACCGUGAUCAUCGAGUGA [Fam2.1 aminoacylation ribozyme variant] | 44.9 | 4.18 | 9.07 | 4.34 | 8.78 | 10.5
AUUCAGCUAGGUCAUCGAGUG [Fam2.2 aminoacylation ribozyme variant] | 8.78 | 2.01 | 2.24 | 1.95 | 2.86 | 1.98
CUACUUCAAUCAAUCGGUCUA [Fam1A.1 aminoacylation ribozyme variant] | 13.7 | 0.972 | 0.871 | 0.914 | 1.02 | 7.18
GUUACCCUGGUCAUCGAGUGG [Fam2.1 aminoacylation ribozyme variant] | 402 | 15 | 57.2 | 17.4 | 58.4 | 50
AUUACCCUGGUCGUAGAGUGA [Fam2.1 aminoacylation ribozyme variant] | 3.08 | 1.17 | 1.28 | 1.09 | 1.84 | 2.26
CUACUUCAAACAAUCGGUGGG [Fam1A.1 aminoacylation ribozyme variant] | 1.14 | 0.934 | 0.811 | 0.816 | 0.878 | 0.856
AAGUGUGCUAAUAGUCGUAAG [Fam3.1 aminoacylation ribozyme variant] | 28 | 1.54 | 1.69 | 1.12 | 0.899 | 7.72

Sequence | self-aminoacylation (biotinyl-Phe-oxazolone) | self-aminoacylation (biotinyl-Ile-oxazolone) | self-aminoacylation (biotinyl-Met-oxazolone) | self-aminoacylation (biotinyl-Val-oxazolone) | self-aminoacylation (biotinyl-Leu-oxazolone) | self-aminoacylation (biotinyl-Trp-oxazolone)
UUUACCCUAGUCAUCGAGUGA [Fam2.1 aminoacylation ribozyme variant] | 17.3 | 2.79 | 5.76 | 3.09 | 5.04 | 7.33
AUACACCUAGGUCACCGGGUG [Fam2.2 aminoacylation ribozyme variant] | 23.3 | 3.29 | 3.09 | 3.23 | 3.78 | 3.79
CUACUUCAAUCAAUCGGUCGG [Fam1A.1 aminoacylation ribozyme variant] | 15.8 | 1.15 | 1.39 | 1.04 | 1.47 | 12.2
AUUGACCUAGAUCAUCGGGUG [Fam2.2 aminoacylation ribozyme variant] | 18 | 2.54 | 3.5 | 2.54 | 3.59 | 3.51
CUACUUCGAACAAUCGGCCUG [Fam1A.1 aminoacylation ribozyme variant] | 4.78 | 1.6 | 1.71 | 1.54 | 1.36 | 1.84
AUUCGCCUAGGUAAUCGGGUG [Fam2.2 aminoacylation ribozyme variant] | 28 | 2.02 | 3.62 | 2.43 | 3.88 | 2.77
AAGUUUGCUAAGAGUCGUAAG [Fam3.1 aminoacylation ribozyme variant] | 7.41 | 0.61 | 0.708 | 0.757 | 0.535 | 2.31
CCACACUUAAAGCAUUCGGUC [Fam1B.1 aminoacylation ribozyme variant] | 1.03 | 1.63 | 1.17 | 1.58 | 1.29 | 1.15
AUUACGCUGGUCAUGGAGUGA [Fam2.1 aminoacylation ribozyme variant] | 5.28 | 2.29 | 2.67 | 2.39 | 2.76 | 3.44
UUACCUCAAACAAUCGGUCUG [Fam1A.1 aminoacylation ribozyme variant] | 3.03 | 0.975 | 0.97 | 1.01 | 0.861 | 2.66
CUACUUCAAUCUAUCGGUCUG [Fam1A.1 aminoacylation ribozyme variant] | 1.28 | 0.888 | 0.902 | 0.907 | 0.836 | 0.936
CCACACUUCAAGCACCCGGUC [Fam1B.1 aminoacylation ribozyme variant] | 0.709 | 1.55 | 1.74 | 1.75 | 1.64 | 2.07
AUUCACCUAGGUCUUCGGGUC [Fam2.2 aminoacylation ribozyme variant] | 3.66 | 1.65 | 1.33 | 1.68 | 2.37 | 1.79
AAGUUUGCUAACAGUCACAAG [Fam3.1 aminoacylation ribozyme variant] | 2.73 | 0.92 | 1.04 | 0.942 | 1.12 | 1.06
CUCCUUAAAACAAUCGGUCUG [Fam1A.1 aminoacylation ribozyme variant] | 1.05 | 1.06 | 1.12 | 0.862 | 0.899 | 1.32
AAGUUUGCUAACAGUCGAAAG [Fam3.1 aminoacylation ribozyme variant] | 5.73 | 0.878 | 0.838 | 0.848 | 0.689 | 2
UUUACCCUGGUCAUCGAGUCA [Fam2.1 aminoacylation ribozyme variant] | 1.06 | 0.707 | 0.696 | 0.738 | 0.713 | 0.585
CCGCACUUCAAGCAUUCGGUC [Fam1B.1 aminoacylation ribozyme variant] | 1.88 | 2.17 | 1.85 | 2.28 | 1.62 | 1.76
CUACUUCAAUCAAUCGGUCUG [Fam1A.1 aminoacylation ribozyme variant] | 31.7 | 1.01 | 1.04 | 1.03 | 1.44 | 17.9
AUAUUUCAAACAAUCGGUCUG [Fam1A.1 aminoacylation ribozyme variant] | 5.45 | 0.897 | 0.844 | 0.834 | 0.891 | 3.15
AUUCAUCUAGGUCCUCGGGUG [Fam2.2 aminoacylation ribozyme variant] | 49.6 | 4 | 5.21 | 3.9 | 8.62 | 5.66
CCACACUUGAACCAAUCGGUC [Fam1B.1 aminoacylation ribozyme variant] | 0.969 | 0.804 | 0.673 | 0.819 | 0.635 | 0.742
AUUCACCUAGGGCAUCGGUUG [Fam2.2 aminoacylation ribozyme variant] | 0.577 | 1.02 | 1.05 | 0.969 | 1.12 | 0.909
CUACUUCAAAGAAUUGGUCUG [Fam1A.1 aminoacylation ribozyme variant] | 0.605 | 1.18 | 0.954 | 0.912 | 1.08 | 0.806
CUUCUUCAAACAAGCGGUCUG [Fam1A.1 aminoacylation ribozyme variant] | 0.813 | 1.09 | 0.925 | 0.958 | 1.04 | 0.713

— the supplement of paper PMC9233669
